Experimental findings from patent US20210388068A1 are described below.

For experiment [1], the target named is MBP-CfaE-N Arg67Ala mutant (enterotoxigenic Escherichia coli (ETEC)) (UniProt P25734). In words: ELISA on plate-bound MBP-CfaE-N Arg67Ala mutant, OD405. (In general: ELISA stands for enzyme-linked immunosorbent assay.)
For experiment [2], the target named is MBP-CfaE-N Thr91Ala mutant (enterotoxigenic Escherichia coli (ETEC)) (UniProt P25734). The experiment can be described thus: ELISA on plate-bound MBP-CfaE-N Thr91Ala mutant, OD405.
Experiment [3] concerns the target MBP-CfaE-N Arg145Ala mutant (enterotoxigenic Escherichia coli (ETEC)) (UniProt P25734). The experiment can be described thus: ELISA on plate-bound MBP-CfaE-N Arg145Ala mutant, OD405.
In experiment [4] the target is MBP-CfaE-N Asn127Ala mutant (enterotoxigenic Escherichia coli (ETEC)) (UniProt P25734). In words: ELISA on plate-bound MBP-CfaE-N Asn127Ala mutant, OD405.

B1: anti-CfaE HuMab 68-90 (antibody, human IgG1, V domains shown)
VH: QVQLQQWGAGLLKPSETLSLTCAVYGGSFSAYYWSWIRQPPGKGLEWIGEINHSGNTNYNPSLESRVTISVDTSKNQVSLKQSSVTAADTAVYYCARNWGPNAFDIWGRGTMVTVSS
VL: DIQMTQSPSSVSASVGDRVTITCRASQDITSWLVWYQHKPGKAPKLLIYAASSLQSGVPSRFSGSGSGTDFTLTISSLQPEDFATYYCQQANIFPYTFGQGTKLEIK
Take B1: the EC50 (read off the curve) is 0.04 µg/mL in experiment [1], 0.02 µg/mL in experiment [2], 0.03 µg/mL in experiment [3] and 0.01 µg/mL in experiment [4].

B2: anti-CfaE HuMab 68-48 (antibody, human IgG1, V domains shown)
VH: QVQLQQWGAGLLKPSETLSLTCAVYGGSFSGYSWSWIRQSPGKGLEWIGEIYHSGSTNYNPSLKSRVTISGDTSKNQFSLKLSSVTAADTAVYYCARENLQGYYYYGMDVWGQGTTVTVSS
VL: AIQLTQSPSSLSASVGDRVTITCRASQGISSSLAWYQQKPGKAPKLLIYDASSLESGVPSRFSGSGSGTDFTLTISSLQPEDFATYYCQQFNSYPRTFGQGTKVEIK
As for B2, the EC50 (read off the curve) in experiment [1] worked out at 0.04 µg/mL; in experiment [3], 0.03 µg/mL.

B3: anti-CfaE HuMab 68-61 (antibody, human IgG1, V domains shown)
VH: QVQLVQSGAEVKNPGSSVRVSCEASGGTFSSFAISWVRQAPGQGLEWMGRIIPILDIVKYAQRFQGRVTISADKSTSTAYMELSSLRSEGTAVYYCARDDIAGSDFDIWGQGTMVTVSS
VL: DIQMTQSPSSLSASVGDRVTITCRASQGISSWLAWYQQKPEKAPKSLIYAASSLQSGVPSRFSGSGSGTDFTLTISSLQPEDFATYYCQQYTSYPYTFGQGTKLEIK
On to B3, for which the EC50 (read off the curve) worked out at 0.04 µg/mL in experiment [1] and 0.03 µg/mL in experiment [3].

In general, EC50 (read off the curve) refers to the concentration that produces a half-maximal response. High values mean weaker potency, low ones greater potency.
